Changes are numbered by the printed parent chain. In names and notes the source's numbering stands.
How the values were obtained:
Type in all cases: cell-based, Saccharomyces cerevisiae
AFY10 [1] = test: Serial dilution drop test on xylose and xylose-glucose media; settings: for growth on low xylose: 0.2% (2 g/l) xylose; for growth on high xylose: 2% (20 g/l) xylose, compared within the same drop test
Method: The transformants were cultivated in 5 ml SCE-ura-leu with 2% ethanol at 30°, washed with water and adjusted to an OD600 of 1. Thereof it followed a serial dilution. 5 μl were dropped onto the respective media and it was incubated for five days at 30°. As a control for the dilution SCE-ura-leu with 2% ethanol was taken. The cells of the mutated transporters were dropped onto SCX-ura-leu with 0.2% and 2% D-xylose, as well as SC-ura-leu with 1% D-xylose with 4% D-glucose and SC-ura-leu with 0.2% D-xylose and 2% D-glucose to test their functionality. Furthermore the wild type and Gal2_ep3.1 were used for comparison.
FIG. 5: Drop test of Gal2_M435I in AFY10 after five days at 30°. Several dilutions were dropped from left to right (undiluted, 1:10, 1:100, 1:1000).
FIG. 6: Drop test of Gal2_N376F, N376F+M435I and N376Y+M435I in AFY10 after five days at 30°. Several dilutions were dropped from left to right (undiluted, 1:10, 1:100, 1:1000). But on 20 g/l xylose the order was different (undiluted, 1:100, 1:1000, 1:10).
(§1) For easy comparison of growth of different S. cerevisiae strains under various growth conditions a serial dilution spot assay was performed. Cells were grown in liquid culture to exponential phase in appropriate medium, collected by centrifugation (2000×g, 2 min), washed twice with sterile water and then resuspended to an OD600 of 1.0 in selective medium without carbon source. From this cell suspension a ten-fold serial dilution was prepared in selective medium (four dilution steps). 6 μl of each cell suspension were spotted on plates of the media to be examined and allowed to dry. Plates were incubated at 30° C.
To characterize the different constructs which all were verified by sequencing they were transformed together with vector YEp181_pHXT7-optXI_Clos into competent AFY10 cells and drop tests were performed.

AFY10 [2] = test: Growth test in liquid media and fermentation; settings: for xylose concentration of the supernatant decreased during the fermentation to: HPLC
Method: The strain AFY10, which was transformed with YEp181_pHXT7-opt.XI_Clos and p426H7-GAL2_wt (WT) or p426H7-GAL2_ep3.1 (ep3.1) or p426-GAL2_N376Y+M435I (M435I), was incubated in 150 ml SCE-ura-leu+G418. This was the preculture which was used to start the fermentation with an OD600 of 0.6 in 30 ml SC-ura-leu with 0.6% xylose (A) or with 0.6% xylose with 2% glucose (B). The cultures were incubated at 180 rpm and 30° for seven days. Samples were taken for growth measurements as well as metabolite analysis.
For analysis of metabolites cell-free samples (5-10 min, 4° C., 16000×g) were mixed with 1/9 volumes of 50% (w/v) 5-sulfosalicylic acid and centrifuged (5-10 min, 4° C., 16000×g). The supernatant was analyzed in an UHPLC+ system by Thermo Scientific (Dionex UltiMate 3000) equipped with a HyperREZ XP Carbohydrate H^+8 μm column and a refractive index detector (Thermo Shodex RI-101). Separation was carried out at column temperature of 65° C. with 5 mM sulfuric acid as mobiles phase with a flow rate of 0.6 ml/min. Chromeleon 6.80 software was used to control the system and to analyze the data. Five standards (mixtures of D-glucose, D-xylose, xylitol, acetate, glycerol and ethanol with concentrations of 0.01-3% (w/v)) were analyzed for quantification of the different compounds.
To investigate the growth difference and the xylose consumption of the mutants in comparison to the wild type and the error prone mutant, an anaerobic growth test in liquid media was carried out. For this purpose AFY10 cells were co-transformed with the vector with the respective GAL2 sequence and YEp181_pHXT7-opt.XI_Clos and inoculated in SCE-ura-leu+G418 to have an OD600 of 0.6 in 30 ml SC-ura-leu with 0.6% xylose or with 0.6% xylose with 2% glucose. The OD600 was measured regularly during five days, the growth rate μ was determined and the metabolites of the samples were examined, whereby the samples were diluted 1:5 for this reason.

EBY.VW4000 [3] = test: Xylose uptake assay with radioactively labelled xylose; settings: for Vmax: xylose uptake, Michaelis-Menten fit (GraphPad Prism), three replicates, figures give velocity in nmol xylose per minute per milligram cell dry mass
Excerpt: FIG. 7: Xylose uptake assay of Gal2_N376Y, N376Y+M435I and Gal2 wild type in EBY.VW4000 (three independent replicates). The uptake velocity is shown in nmol xylose per minute per milligram cell dry mass.
FIG. 8: Xylose uptake assay of Gal2_N376F, N376F+M435I and Gal2 wild type in EBY.VW4000 (three independent replicates). The uptake velocity is shown in nmol xylose per minute per milligram cell dray mass.
Sugar uptake assays were done as described by Bisson et al. (Bisson and Fraenkel, 1983) with modifications according to Walsh et al. (Walsh et al., 1994).
Transformants of strain EBY.VW4000 were grown in selective YEPE to an OD of 1.1-1.6, harvested by centrifugation and washed twice in ice-cold uptake-buffer (RT, 3 min, 3000×g). Cells were kept on ice from here on. The cell pellet was resuspended in ice-cold uptake-buffer to a concentration of 60 mgww/ml and aliquoted to 110 μl. One cell suspension aliquot and one sugar solution were incubated in a water bath at 30° C. for 4-5 min. 100 μl of the cell suspension were pipetted to the sugar solution (50 μl), mixed briefly by pipetting and incubated for 5 (D-[U-^14C]-glucose) or 20 sec (D-[1-^14C]-xylose). The uptake reaction was stopped by transferring 100 μl of the mixture into 10 ml ice-cold quenching-buffer, which was immediately filtered through a Durapore membrane filter (0.22 μm pore size, Millipore). The filter was washed twice with 10 ml ice-cold quenching-buffer, transferred to a scintillation vial containing 4 ml scintillation cocktail (Rotiszint eco plus, Roth) and shaken thoroughly. Additionally to this filter sample (cpmfilter), 10 μl of each reaction were transferred directly to a scintillation vial with 4 ml scintillation cocktail for determination of the total counts in the reaction (cpmtotal). To determine a value for sugar that is bound unspecifically to the cell surface or the filter (cpmblank) a few samples of 33,3 μl sugar solution and 66,6 μl cell suspension were mixed in 10 ml icecold quenching buffer and treated as described above. Radioactivity of all vials was analysed in an Wallac 1409 liquid scintillation counter.
Stocksolutions of 2M, 500 mM or 20 mM glucose or xylose (in H2O) were used to prepare the sugar solutions for the assays (threefold of the desired concentration in the uptake reaction (S, substrate concentration), 50 μl aliquots). Uptake was measured at sugar concentrations 0.2, 1, 5, 25 and 100 mM for glucose and 1, 5, 25, 66, 100, 200 and 500 mM for xylose. Inhibition of xylose uptake by glucose was measured at 25, 66 and 100 mM xylose with additional 25 and 100 mM unlabelled glucose. Sugar solutions contained 0.135 to 0.608 μCi of D-[U-^14C]-glucose (290-300 mCi/mmol) or D-[1-^14C]-xylose (55 mCi/mmol) (American Radiolabeled Chemicals Inc., St. Louis, Mo., USA).
The amount of sugar (Asugar in nmol) taken up during the incubation time (t, in seconds) at a certain sugar concentration (S, in mM): Asugar=((cpmsample−cpmblank)/(cpmtotal·10))·S·100 μl
Transport velocity (in nmol·min^−1·mgww^−1) calculated per milligrams of cell (m, in mgww): V=(Asugar·60 s)/(t·m)
Calculation of Km (Michaelis constant), Vmax (maximal initial uptake velocity) and Ki (inhibitor constant for competitive inhibition) was done by nonlinear regression analysis and global curve fitting in Prism 5 (GraphPad Software, Inc.) with values of three independent measurements.
Xylose uptake of Gal2_N376F, N376F+M435I, N376Y und N376Y+M435I was characterized with a sugar uptake assay. The relevant plasmids were transformed in strain EBY.VW4000. Cells were cultivated in SCM-ura until they reached the exponential growth phase (OD600˜0.6). Then cells were harvested, concentrated to the same OD600 (OD600 35-40), separated into different aliquots and stored on ice.
Three uptake assays (in tripicates) were performed with different concentrations of radioactively labelled xylose. Data were collected and fittet with GraphPad Prism according to Michaelis Menten (FIGS. 7 and 8).

EBY.VW4000 [4] = test: Serial dilution drop test on glucose and galactose media
Method: The transformants were cultivated in 5 ml SCM-ura with 20 g/l maltose at 30°, washed with water and adjusted to an OD600 of 1. Thereof it followed a serial dilution. 5 μl were dropped onto the respective media and it was incubated for three days at 30°. As a control for the dilution SCM-ura with 20 g/l maltose was taken. The cells of the mutated transporters were dropped onto SCD-ura with 0.2% and 2% glucose, as well as SCG-ura with 0.2% and 2% D-galactose to test their functionality. Furthermore the wild type, Gal2_ep3.1 and Gal2_N376Y were used for comparison.
FIG. 4: Drop test of Gal2_M435I in EBY.VW4000 after three days at 30°. Several dilutions from left to right were dropped (undiluted, 1:10, 1:100, 1:1000).
as §1

AFY10X = test: epPCR-screening by replica-plating on xylose plus glucose media; settings: media with 1% xylose and increasing amounts of glucose (up to 5%)
Excerpt: Mutants of GAL2 were created using error-prone PCR (epPCR) and then screened in AFY10X as described in Farwick et al. (2014). This method is faster than evolutionary engineering experiments and more often generates multiple mutations per ORF that might have a unique combined effect. On the downside, there might be more silent mutations among the increased number of mutations which might aggravate the identification of the relevant mutations in each clone. The GAL2 ORF was amplified in an epPCR with short amplification primers, applying various mutation rates, and the purified fragments then again amplified for recombinational cloning in a second PCR. Functional plasmids were in vivo assembled from PCR fragments and linearized p426H7 vector directly in the screening strain AFY10X. Transformants were plated out on selective SCE2 plates and subsequently screened. Colonies were tested for improved growth on media with 1% xylose and increasing amounts of glucose (up to 5%) by replica-plating. Seven clones were selected and grown in SCE2 ura^− leu^−+G418+2-DOG and samples of these cultures streaked out on plates for comparison and to obtain single colonies. Five of these seven clones were confirmed to grow on xylose glucose media. The plasmids of two clones were successfully isolated as described (yeast DNA was digested with EcoRI) and sequenced.

[5] = start 0.6% xylose with 2% glucose
[6] = drop test, FIG. 4, versus wild-type Gal2

B1: N376Y + M435I: Gal2 variant with amino acid substitutions N376Y and M435I (protein, UniProt P13181 1-574, looked up, variant N376Y M435I)
Galactose transporter: MAVEENNMPVVSQQPQAGEDVISSLSKDSHLSAQSQKYSNDELKAGESGSEGSQSVPIEIPKKPMSEYVTVSLLCLCVAFGGFMFGWDTGTISGFVVQTDFLRRFGMKHKDGTHYLSNVRTGLIVAIFNIGCAFGGIILSKGGDMYGRKKGLSIVVSVYIVGIIIQIASINKWYQYFIGRIISGLGVGGIAVLCPMLISEIAPKHLRGTLVSCYQLMITAGIFLGYCTNYGTKSYSNSVQWRVPLGLCFAWSLFMIGALTLVPESPRYLCEVNKVEDAKRSIAKSNKVSPEDPAVQAELDLIMAGIEAEKLAGNASWGELFSTKTKVFQRLLMGVFVQMFQQLTGNNYFFYYGTVIFKSVGLDDSFETSIVIGVVYFASTFFSLWTVENLGHRKCLLLGAATMMACMVIYASVGVTRLYPHGKSQPSSKGAGNCIIVFTCFYIFCYATTWAPVAWVITAESFPLRVKSKCMALASASNWVWGFLIAFFTPFITSAINFYYGYVFMGCLVAMFFYVFFFVPETKGLSLEEIQELWEEGVLPWKSEGWIPSSRRGNNYDLEDLQHDDKPWYKAMLE
- growth on low xylose (AFY10 [1]): better growth
- growth on low xylose with glucose (AFY10 [1]; 0.2% xylose with 2% glucose): better growth
- growth on xylose with glucose (AFY10 [1]; 1% xylose with 4% glucose (10 g/l xylose plus 40 g/l glucose)): best growth
- growth on high xylose (AFY10 [1]): best growth
- growth rate (AFY10 [2]; 0.6% xylose): 0.014 h⁻¹
- growth rate (AFY10 [2]; 0.6% xylose with 2% glucose): 0.015 h⁻¹
- xylose concentration of the supernatant decreased during the fermentation to (AFY10 [2]; [5]): 0.37%
- xylose concentration of the supernatant decreased during the fermentation to (AFY10 [2]; start 0.6% xylose): 0.35%
- xylose uptake rate compared to wild type (EBY.VW4000 [3]; FIGS. 7 and 8): strongly improved
- Vmax (EBY.VW4000 [3]): 99.61

B2: Gal2_M435I: M435I exchange introduced into wild-type Gal2 (protein, UniProt P13181 1-574, looked up, variant M435I)
Galactose transporter: B1 Galactose transporter with Y376N
- growth on low xylose (AFY10 [1]): No growth
- growth on high xylose (AFY10 [1]): slow growth
- growth on xylose-glucose mixtures (AFY10 [1]; FIG. 5): No growth
- uptake of xylose (AFY10 [1]; drop test, FIG. 5): reduced
- growth on glucose (EBY.VW4000 [4]; 2 g/l and 20 g/l glucose): much slower
- uptake of galactose (EBY.VW4000 [4]; [6]): no effect
- uptake of glucose (EBY.VW4000 [4]; [6]): strongly reduced

B3: Gal2_ep3.1: Gal2 epPCR clone with mutations M107K V239L N376Y M435I L558S (protein, UniProt P13181 1-574, looked up, variant M107K V239L N376Y M435I L558S)
Galactose transporter: B1 Galactose transporter with M107K, V239L, L558S
- growth on medium (xylose + glucose) (AFY10X): 1 + 5

B4: Gal2 WT: wild-type protein Gal2 of S. cerevisiae CEN.PK2-1C, SEQ ID NO: 1, 574 amino acids, galactose transporter (protein, UniProt P13181 1-574, looked up)
Galactose transporter: B1 Galactose transporter with Y376N, I435M
- growth on low xylose (AFY10 [1]): best growth
- OD600 tend (AFY10 [2]; [Xyl+Glu]: 0.6% xylose with 2% glucose): 0,52
- OD600 tend (AFY10 [2]; [Xyl]: 0.6% xylose without glucose): 0,86
- xylose concentration of the supernatant decreased during the fermentation to (AFY10 [2]; [5]): 0.53%
- Vmax (EBY.VW4000 [3]): 63.43

— patent publication US10308692B2, “Variants of GAL2 transporter and their uses” (Johann Wolfgang Goethe-Universität Frankfurt, priority 2014, dated 2019)
